Results on 1 molecule are retold here after publication PMC7294595 (2020).

[ ]: non-standard residue; d: D form. CPP12 = cyclic cell-penetrating peptide fused at the N-terminus; pY = N[C@@H](Cc1ccc(OP(=O)(O)O)cc1)C(=O)O; βAla = NCCC(=O)O

For one test, the target named is T1, CPP12-pTyr (Homo sapiens, not fully specified).
T1 chain: {CPP12-βAla-βAla}-G[pY]LPQTV-NH2
Briefly: competition fluorescence polarization.

Test [1] deals with T2, ac-pTyr (gp130-derived phosphopeptide) (Homo sapiens).
T2 chain: Ac-G[pY]LPQTV-NH2
In words: competition fluorescence polarization.

B1: STAT3 127-711 (protein)
chain: GQANHPTAAVVTEKQQMLEQHLQDVRKRVQDLEQKMKVVENLQDDFDFNYKTLKSQGDMQDLNGNNQSVTRQKMQQLEQMLTALDQMRRSIVSELAGLLSAMEYVQKTLTDEELADWKRRQQIACIGGPPNICLDRLENWITSLAESQLQTRQQIKKLEELQQKVSYKGDPIVQHRPMLEERIVELFRNLMKSAFVVERQPCMPMHPDRPLVIKTGVQFTTKVRLLVKFPELNYQLKIKVCIDKDSGDVAALRGSRKFNILGTNTKVMNMEESNNGSLSAEFKHLTLREQRCGNGGRANCDASLIVTEELHLITFETEVYHQGLKIDLETHSLPVVVISNICQMPNAWASILWYNMLTNNPKNVNFFTKPPIGTWDQVAEVLSWQFSSTTKRGLSIEQLTTLAEKLLGPGVNYSGCQITWAKFCKENMAGKGFSFWVWLDNIIDLVKKYILALWNEGYIMGFISKERERAILSTKPPGTFLLRFSESSKEGGVTFTWVEKDISGKTQIQSVEPYTKQQLNNMSFAEIIMGYKIMDATNILVSPLVYLYPDIPKEEAFGKYCRPESQEHPEADPGSAAPYLKTKFI
For B1, the IC50 in the test with CPP12-pTyr was determined as 0.41 µM; in test [1], 0.61 µM.
